# Patent publication US20070072239A1 (Pfizer, published 2007)
# T1: Wnt3 (human, UniProt P56703 22-355 at identity 1.00), limits assumed)
# T1 chain: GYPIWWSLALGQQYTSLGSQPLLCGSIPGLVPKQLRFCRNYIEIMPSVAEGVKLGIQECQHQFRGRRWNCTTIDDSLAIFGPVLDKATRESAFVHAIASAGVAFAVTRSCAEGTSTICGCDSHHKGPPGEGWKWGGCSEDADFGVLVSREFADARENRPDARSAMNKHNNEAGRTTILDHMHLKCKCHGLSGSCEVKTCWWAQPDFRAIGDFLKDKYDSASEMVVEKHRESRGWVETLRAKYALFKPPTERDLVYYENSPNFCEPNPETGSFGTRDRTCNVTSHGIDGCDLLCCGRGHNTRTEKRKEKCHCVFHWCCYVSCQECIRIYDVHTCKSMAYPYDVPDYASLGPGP
# Target: T1, Wnt3
# Assay: cell-based or functional assay
binder,measurement,value
SFRP-1/SFRP-2 (1-248/238-295) chimera (receptor) SEYDYVSFQSDIGPYQSGRFYTKPPQCVDIPADLRLCHNVGYKKMVLPNLLEHETMAEVKQQASSWVPLLNKNCHAGTQVFLCSLFAPVCLDRPIYPCRWLCEAVRDSCEPVMQFFGFYWPEMLKCDKFPEGDVCIAMTPPNATEASKPQGTTVCPPCDNELKSEAIIEHLCASEFALRMKIKEVKKENGDKKIVPKKKKPLKLGPIKKKDLKKLVLWLKDSLQCTCEEMNDINAPYLVMGQKQGGELVITSVKRWQKGQREFKRISRSIRKLQC,loss of Wnt3 antagonist activity relative to SFRP-1 (TCF-Luciferase reporter),~40 % loss of activity
